Assay [1] concerns the target LHCII, the major light-harvesting pigment-protein complex of Photosystem II (Spinacia oleracea (endogenous in spinach leaves)). The experiment in a line: native gel or EMSA; non-denaturing gel electrophoresis of LHCII isolated from dark-adapted spinach leaves, suspended in 0.1% DM; 3% stacking and 8% separating gel, 4 °C, running buffer 96 mM glycine, 12.5 mM Tris, 0.05% LDS.

Assay [2] shares this target. The experiment in a line: fluorescence correlation spectroscopy; mixture of LHCII trimers and monomers in 0.1% DM, illuminated with blue light of 100 µmol photons m^-2 s^-1 for 30 min, diluted to 3 nM; the form is assigned by its diffusion coefficient against monomer and trimer standards.
Assay [3] shares this target. The experiment in a line: native gel or EMSA; identical experiment with thylakoid membranes from dark-adapted spinach leaves solubilised in 0.1% DM, electrophoresis under illumination of increasing intensity (Fig. S4). A general note: A gel shift assay detects complexes by their altered migration in electrophoresis.
Assay [4] has the same target. The experiment in a line: native gel or EMSA; lipid-LHCII samples enriched with exogenously added zeaxanthin, separated by native electrophoresis; dimer bands cut out for spectroscopy.
Assay [5] has the same target. The experiment in a line: native gel or EMSA; non-denaturing gel electrophoresis of LHCII from dark-adapted leaves in 0.1% DM under constant illumination from sample loading, each slot at a different light intensity (11-1240 µmol photons m^-2 s^-1); 4 °C.
The target is the same in assay [6]. As to the kind of experiment: native gel or EMSA; non-denaturing gel electrophoresis of LHCII-HL, isolated from spinach leaves pre-illuminated with 1200 µmol photons m^-2 s^-1, suspended in 0.1% DM; 4 °C, running buffer 96 mM glycine, 12.5 mM Tris, 0.05% LDS.

Several values for one entry are separate records, joined by “and”; a condition that tells them apart may be missing. Equal entries are not always repeated.

“LHCII, the major light-harvesting pigment-protein complex of Photosystem II (natural protein)”: the stoichiometry N (commonly the number of molecules, sites or subunits per partner or assembly) in assay [1] is 3; in assay [2], 2; in assay [3], 3 and 2; in assay [4], 2; in assay [5], 3 and 2; in assay [6] it was 3 and 2. For the same substance, the trimer/monomer ratio turned out to be 2.82 in assay [1] and 0.71 in assay [6].

Values taken from article PMC5443882.
